Experimental data reported in patent US20230192896A1 (BIOVERATIV THERAPEUTICS, published 2023).

Target: T1, non-activatable Factor X (FXn) (Homo sapiens (Human), UniProt P00742 41-488, single biotin on the C-terminal BioTag)
T1 construct: also called BIIB-FX-015
Assay: BLI; class meaning: paragraph 285

Row | Binder | binding result
1 | BIIB-12-1291 (antibody, V domains shown, IgG) VH: QVQLVQSGAEVKKPGASVKVSCKASGYTFTSYYMHWVRQAPGQGLEWMGIINPSGGSTSYAQKFQGRVTMTRDTSTSTVYMELSSLRSEDTAVYYCARSRRMWVGYFDLWGRGTLVTVSS VL: EIVLTQSPATLSLSPGERATLSCRASQSVSSYLAWYQQKPGQAPRLLIYDASNRATGIPARFSGSGSGTDFTLTISSLEPEDFAVYYCQQRLNLPLTFGGGTKVEIK | binds
2 | BIIB-12-1292 (antibody, V domains shown, IgG) VH: QVQLVQSGAEVKKPGASVKVSCKASGYTFTSYYIHWVRQAPGQGLEWMGIINPSGGSTSYAQKFQGRVTMTRDTSTSTVYMELSSLRSEDTAVYYCARDPGRRQSSGFDYWGQGTLVTVSS VL: EIVMTQSPATLSLSPGERATLSCRASQSVSSYLAWYQQKPGQAPRLLIYDSSNRATGIPARFSGSGSGTDFTLTISSLEPEDFAVYYCQQRLNFPFTFGGGTKVEIK | binds
3 | BIIB-12-932 (antibody, V domains shown, IgG) VH: QVQLVESGGGVVQPGRSLRLSCAASGFTFSSYGMHWVRQAPGKGLEWVAVISYDGSNKYYADSVKGRFTISRDNSKNTLYLQMNSLRAEDTAVYYCARLGYRGASAFDIWGQGTMVTVSS VL: not shown | binds
4 | BIIB-12-935 (antibody, V domains shown, IgG) VH: QVQLVESGGGVVQPGRSLRLSCAASGFTFSSYGMHWVRQAPGKGLEWVAVISYDGSNKYYADSVKGRFTISRDNSKNTLYLQMNSLRAEDTAVYYCARELEYGHYGMDVWGQGTTVTVSS VL: not shown | binds
5 | BIIB-12-934 (antibody, V domains shown, IgG) VH: QVQLVESGGGVVQPGRSLRLSCAASGFTFSSYGMHWVRQAPGKGLEWVAVISYDGSNKYYADSVKGRFTISRDNSKNTLYLQMNSLRAEDTAVYYCARESGGHSYGMDVWGQGTTVTVSS VL: EIVLTQSPATLSVSPGERATLSCRASQSVSSNLAWYQQKPGQAPRLLIYGASTRATGIPARFSGSGSGTEFTLTISSLQSEDFAVYYCQQFNDHPITFGGGTKVEI | binds
6 | BIIB-12-1289 (antibody, V domains shown, IgG) VH: QVQLVQSGAEVKKPGASVKVSCKASGYTFTSYYMHWVRQAPGQGLEWMGIINPGGGSTSYAQKFQGRVTMTRDTSTSTVYMELSSLRSEDTAVYYCARGPPRTYATGSHNWFDPWGQGTLVTVSS VL: not shown | binds
7 | BIIB-12-937 (antibody, V domains shown, IgG) VH: QVQLVQSGAEVKKPGASVKVSCKASGYTFTSYYMHWVRQAPGQGLEWMGIINPSGGSTSYAQKFQGRVTMTRDTSTSTVYMELSSLRSEDTAVYYCARPTRMLRSYGMDVWGQGTTVTVSS VL: not shown | binds
8 | BIIB-12-931 (antibody, V domains shown, IgG) VH: QVQLVQSGAEVKKPGASVKVSCKASGYTFTSYYMSWVRQAPGQGLEWMGIINPSGGSTSYAQKFQGRVTMTRDTSTSTVYMELSSLRSEDTAVYYCARDPVQEYGPYYYYMDVWGKGTTVTVSS VL: EIVMTQSPATLSVSPGERATLSCRASQSVSSNLAWYQQKPGQAPRLLIYGASTRATGIPARFSGSGSGTEFTLTISSLQSEDFAVYYCQQAAYWPWTFGGGTKVEIK | binds
9 | BIIB-12-936 (antibody, V domains shown, IgG) VH: not shown VL: EIVMTQSPATLSVSPGERATLSCRASQSVSSNLAWYQQKPGQAPRLLIYGASTRATGIPARFSGSGSGTEFTLTISSLQSEDFAVYYCQQSHNLPPTFGGGTKVEIK | binds
10 | BIIB-12-933 (antibody, V domains shown, IgG) VH: QVQLVESGGGVVQPGRSLRLSCAASGFTFSSYGMHWVRQAPGKGLEWVAVISYDGSNKYYADSVKGRFTISRDNSKNTLYLQMNSLRAEDTAVYYCARLPRFTGTAYWGQGTLVTVSS VL: not shown | binds
11 | BIIB-12-1288 (antibody, V domains shown, IgG) VH: QVQLVQSGAEVKKPGASVKVSCKASGYTFTSYYMHWVRQAPGQGLEWMGIINPSGGSTSYAQKFQGRVTMTRDTSTSTVYMELSSLRSEDTAVYYCARGGANDYGSSSRWWYFDLWGRGTLVTVSS VL: not shown | binds
